Test results reported in patent publication US7906477B2 (Genspera, Inc., priority 2002, dated 2011).
Square brackets hold non-standard residues; d marks the D form. Ends that are not written are not given here. Peptide text beside a SMILES is read from it. Tyr(3-NO2) = N[C@@H](Cc1ccc(O)c([N+](=O)[O-])c1)C(=O)O; 2Abz = Nc1ccccc1C(=O)O

Experiments:
[1] = biological target: sarcoplasmic reticulum (SR) and endoplasmic reticulum (ER) Ca^2+-ATPase (SERCA) pump; conditions: read-out: apparent dissociation constant for TG from the SERCA pump; cited from earlier work
[2] = plasma stability of acetylated versus non-acetylated peptide (plasma species not stated); assay type: in vitro ADME; conditions: plate-reader assay and analytical HPLC
Experimental: Mouse plasma was obtained from cardiac puncture of anesthetized mice prior to euthanization by CO2 overdose according to protocols approved by the Johns Hopkins Animal Care and Use Committee. Human plasma was obtained from discarded, pooled, and unlabeled clinical samples. Plasma was diluted to 50% in Tris buffer (50 mM Tris-HCl, 100 mM NaCl, pH 7.8). To this, test peptides/prodrugs were added to 250 or 500 μM final concentration. After the incubation period, one volume (200 μl) of acetonitrile was added to precipitate the protein fraction and the tube was centrifuged at 14,000 for 2 min. The supernatant was analyzed by C18-HPLC and the collected peaks were analyzed by MALDI-TOF as described above.
To determine whether merely the acetylation of the N-terminus of the hK2 prodrug contributed to its stability, an acetylated fluorescence-quenched peptide (ac-Y′GKAFRRLGK′; SEQ ID NO:18) was synthesized and compared its plasma stability with that of the non-acetylated peptide (Y′GKAFRRLGK′; SEQ ID NO:21). […] Analytical HPLC indicated the same result. […] The paradoxical stability of the hK2 prodrug (ac-GKAFRR-L12ADT; SEQ ID NO:41) compared to the peptide substrates may also be due to binding of the L12ADT moiety to plasma proteins that make it inaccessible to the plasma protease activity that is responsible for hydrolysis of unconjugated (and unbound) peptides.

Cathepsin D = Cathepsin D (Homo sapiens, UniProt P07339); test: hydrolysis by tumor-associated proteases: Cathepsin D; assay type: biochemical
From the text: (§1) Due to their short length, the hK2 peptide substrates could potentially be substrates for other trypsin-like proteases. Although a rather specific protease substrate can be defined with 7 amino acids, there is a lack of higher order structural information by which natural protein substrates normally impose high specificity. Cancer progression is often correlated with increased protease activity (Koblinsli, J. E. et al. (2000) Clin. Chim. Acta 291:113-135). These activities could be potentially beneficial since they could broaden the scope of applications for protease activated prodrugs. To test the hypothesis that other tumor-associated proteases could activate the prodrug, a number of known proteases (table 3), implicated in cancer progression were selected to determine if our lead substrate, GKAFRRL (SEQ ID NO:30) could be efficiently hydrolyzed by any of these proteases. For this analysis, the trypsin-like serine proteases plasmin and urokinase and cathepsins B and D were selected. Hydrolysis of both the fluorescence quenched peptide substrate and the TG-prodrug was analyzed. […] Plasmin, therefore, could be a valid target for selective activation of the GKAFRR-L12ADT (SEQ ID NO:44) prodrug in other types of cancer where plasmin activation may play an important role.

Urokinase = Urokinase (Homo sapiens, UniProt P00749); test: hydrolysis by tumor-associated proteases: Urokinase; assay type: biochemical
From the text: as §1

Cathepsin B = Cathepsin B (Homo sapiens, UniProt P07858); test: hydrolysis by tumor-associated proteases: Cathepsin B; assay type: biochemical
From the text: as §1

hK2 [3] = biological target: T1, hK2 (Homo sapiens, UniProt P20151); test: hydrolysis in the protease panel: hK2; assay type: biochemical; conditions: enzyme 1 μg/ml, substrate 500 μM; 1 = approximately 0.1% digestion in 1 hour
T1 construct: made in house
From the text: as §1

Plasmin = Plasmin (Homo sapiens, UniProt P00747); test: hydrolysis by tumor-associated proteases: Plasmin; assay type: biochemical
From the text: as §1

hK2 [4] = biological target: T1, hK2; test: hK2 hydrolysis of prodrug and non-fluorescent peptide by HPLC; assay type: biochemical; conditions: HPLC analysis
Experimental: FIG. 4 depicts HPLC analysis of the hydrolysis of the hK2 prodrug Ac-GKAFRR-L12ADT (SEQ ID NO:41) by hK2 ([…]) incubated in 50 mM Tris, 0.1 M NaCl, pH 7.8 at room temperature for 24 hours. The mass of each peak was confirmed by MALDI-TOF mass spectrometric analysis.
Fluorescent substrates were analyzed by means of a fluorescence plate-reader (ex=355 nm, em=460 nm). acGKAFRRL-12ADT (SEQ ID NO:41) and acGKAFRRLG (SEQ ID NO:43) were analyzed by HPLC and quantified by HLPC integration.
This putative hK2 prodrug was incubated with enzymatically active hK2 (4 μg/ml) to determine extent of hydrolysis over time. […] In 25 min, 50% was hydrolyzed and after 1 hour, more than 80% of the starting prodrug was hydrolyzed. The ratio of the products RL-12ADT:L-12ADT was 1:1.8, as determined by HPLC integration.

[5] = enzyme 1 μg/ml, substrate 500 μM, 1 = approximately 0.1% digestion in 1 hour

Cathepsin D, sequence (P07339 65-412, species assumed): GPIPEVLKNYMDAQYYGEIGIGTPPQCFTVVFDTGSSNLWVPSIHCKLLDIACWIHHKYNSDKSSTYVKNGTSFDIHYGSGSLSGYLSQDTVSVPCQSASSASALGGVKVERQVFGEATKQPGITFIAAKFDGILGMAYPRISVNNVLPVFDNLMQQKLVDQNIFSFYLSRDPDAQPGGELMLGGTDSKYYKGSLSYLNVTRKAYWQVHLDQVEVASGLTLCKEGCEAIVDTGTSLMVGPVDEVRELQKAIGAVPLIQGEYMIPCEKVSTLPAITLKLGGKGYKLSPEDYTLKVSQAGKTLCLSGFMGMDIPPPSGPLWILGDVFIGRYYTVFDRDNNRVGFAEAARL
T1 sequence (P20151 25-261): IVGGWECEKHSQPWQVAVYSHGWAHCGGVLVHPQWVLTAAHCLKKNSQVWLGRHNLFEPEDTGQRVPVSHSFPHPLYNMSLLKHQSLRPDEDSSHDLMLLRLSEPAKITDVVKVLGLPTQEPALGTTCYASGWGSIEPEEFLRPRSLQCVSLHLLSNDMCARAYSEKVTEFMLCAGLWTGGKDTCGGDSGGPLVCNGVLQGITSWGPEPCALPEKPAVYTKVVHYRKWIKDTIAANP
Plasmin, sequence (P00747 581-810 limits assumed, species assumed): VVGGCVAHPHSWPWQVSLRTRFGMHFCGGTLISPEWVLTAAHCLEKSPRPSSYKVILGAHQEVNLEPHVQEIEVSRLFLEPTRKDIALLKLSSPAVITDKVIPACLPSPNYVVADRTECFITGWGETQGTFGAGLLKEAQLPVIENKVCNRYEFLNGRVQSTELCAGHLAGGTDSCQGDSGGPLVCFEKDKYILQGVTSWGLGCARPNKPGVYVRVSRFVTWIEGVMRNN
Plasmin, sequence (P00747 97-580 partner limits assumed, species assumed): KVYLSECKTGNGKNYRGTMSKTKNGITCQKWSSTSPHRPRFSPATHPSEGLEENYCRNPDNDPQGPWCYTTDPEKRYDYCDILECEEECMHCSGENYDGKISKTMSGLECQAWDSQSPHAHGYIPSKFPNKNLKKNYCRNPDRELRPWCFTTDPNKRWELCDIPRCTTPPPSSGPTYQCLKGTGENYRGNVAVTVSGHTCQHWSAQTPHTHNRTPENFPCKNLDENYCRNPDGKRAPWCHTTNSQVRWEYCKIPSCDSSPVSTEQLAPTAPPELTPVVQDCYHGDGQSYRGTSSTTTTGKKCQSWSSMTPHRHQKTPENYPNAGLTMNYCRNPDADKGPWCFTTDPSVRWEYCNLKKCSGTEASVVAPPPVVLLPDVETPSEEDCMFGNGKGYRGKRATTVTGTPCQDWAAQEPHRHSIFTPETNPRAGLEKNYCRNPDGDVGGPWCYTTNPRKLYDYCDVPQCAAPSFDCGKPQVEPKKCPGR

C/C=C(/C)C(=O)O[C@H]1C(C)=C2[C@H]([C@@H]1OC(=O)CCCCCCC)[C@@](C)(OC(C)=O)C[C@H](OC(=O)CCC)[C@@]1(O)[C@H]2OC(=O)[C@@]1(C)O [TG, Thapsigargin]
Kd [1]: ≤ 2.2 pM

CC(=O)N[C@@H](Cc1ccc(O)c([N+](=O)[O-])c1)C(=O)NCC(=O)N[C@@H](CCCCN)C(=O)N[C@@H](C)C(=O)N[C@@H](Cc1ccccc1)C(=O)N[C@@H](CCCNC(=N)N)C(=O)N[C@@H](CCCNC(=N)N)C(=O)N[C@@H](CC(C)C)C(=O)NCC(=O)N[C@@H](CCCCNC(=O)c1ccccc1N)C(=O)O [ac-Y′GKAFRRLGK′] (Ac-[Tyr(3-NO2)]GKAFRRLGK(2Abz)-OH)
plasma hydrolysis compared with the non-acetylated peptide (in words) [2]: completely identical

Abz-GKAFRRLY′: fluorescence quenched peptide substrate with the lead sequence GKAFRRL ([2Abz]GKAFRRL[Tyr(3-NO2)])
hydrolysis following incubation with Cathepsin D (in words) (Cathepsin D): No appreciable hydrolysis | Relative hydrolysis rate, Cathepsin D (Cathepsin D; [5]): 1 | activity of Urokinase on the substrate (in words) (Urokinase): low activity | Relative hydrolysis rate, Urokinase (Urokinase; [5]): 17 | hydrolysis following incubation with Cathepsin B (in words) (Cathepsin B): No appreciable hydrolysis | Relative hydrolysis rate, Cathepsin B (Cathepsin B; [5]): 1 | Relative hydrolysis rate, hK2 (hK2 [3]): 353 | Relative hydrolysis rate, Plasmin (Plasmin; [5]): 36 | fold slower rate of hydrolysis by plasmin than by hK2 (Plasmin; fluorescence quenched peptide substrate): more than 10 fold

ac-GKAFRRLG: acetylated non-fluorescence quenched peptide (Ac-GKAFRRLG)
hydrolysis by hK2 (in words) (hK2 [4]): rapidly hydrolyzed by hK2
